Data reported in article PMC3260246.

Key:
Experiment in all cases: membrane filtration equilibrium binding (Scatchard plot); 12.5 µM wild-type or mutant small heat shock protein incubated 1 hr at 60°C with 2–18 µM γ-crystallin in 50 mM phosphate buffer, 100 mM NaCl, pH 7.2; unbound substrate separated through a 100-kDa cut off Microcon filter; n per subunit of chaperone
[1] = molecular target: Hsp27 R12A mutant (human) (UniProt P04792)
[2] = molecular target: wild-type human Hsp27 (human) (UniProt P04792)
Sequence of wild-type human Hsp27 (human) (P04792 whole entry): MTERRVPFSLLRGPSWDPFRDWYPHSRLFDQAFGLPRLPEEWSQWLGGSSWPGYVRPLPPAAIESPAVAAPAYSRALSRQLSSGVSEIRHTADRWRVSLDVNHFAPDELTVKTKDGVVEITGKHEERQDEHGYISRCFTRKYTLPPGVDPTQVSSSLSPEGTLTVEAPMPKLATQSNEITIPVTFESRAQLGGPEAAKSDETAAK

[3] = molecular target: wild-type human αA-crystallin (human) (UniProt P02489)
Sequence of wild-type human αA-crystallin (human) (P02489 whole entry): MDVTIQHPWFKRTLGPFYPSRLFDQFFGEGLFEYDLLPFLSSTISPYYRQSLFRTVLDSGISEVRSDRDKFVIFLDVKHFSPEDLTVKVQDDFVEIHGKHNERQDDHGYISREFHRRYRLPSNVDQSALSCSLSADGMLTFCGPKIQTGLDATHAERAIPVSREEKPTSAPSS

[4] = molecular target: wild-type human αB-crystallin (human) (UniProt P02511)
Sequence of wild-type human αB-crystallin (human) (P02511 whole entry): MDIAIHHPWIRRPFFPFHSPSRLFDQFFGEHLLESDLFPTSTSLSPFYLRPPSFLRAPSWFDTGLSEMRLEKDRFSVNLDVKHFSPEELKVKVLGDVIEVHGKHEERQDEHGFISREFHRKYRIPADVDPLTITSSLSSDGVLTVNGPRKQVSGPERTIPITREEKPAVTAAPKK

[5] = molecular target: αB-crystallin R12A mutant (human) (UniProt P02511)
Sequence of αB-crystallin R12A mutant (human) (P02511 whole entry R12A): as the sequence (P02511 whole entry) above, with R12A counted along it

Sequence of bovine γ-crystallin (P02526 whole entry): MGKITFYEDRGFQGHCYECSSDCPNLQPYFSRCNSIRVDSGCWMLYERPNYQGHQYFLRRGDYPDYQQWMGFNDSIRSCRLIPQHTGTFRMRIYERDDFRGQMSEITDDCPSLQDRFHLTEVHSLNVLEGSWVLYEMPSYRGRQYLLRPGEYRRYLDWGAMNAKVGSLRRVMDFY
Sequence of Hsp27 R12A mutant (human) (P04792 whole entry R12A): as the sequence (P04792 whole entry) above, with R12A counted along it

- Kd [1]: 5.79 µM
- stoichiometry N [1]: 2.87
- Kd [2]: 5.91 µM
- stoichiometry N [2]: 2.9
- stoichiometry N [3]: 3.61
- Kd [4]: 2840 nM
- stoichiometry N [4]: 2.34
- Kd [5]: 3.24 µM
- stoichiometry N [5]: 1.68
Substance: bovine γ-crystallin (from UniProt P02526 1-175) (natural protein)
